Assay results as given in article PMC10094569.

Target: human IgG1 Fc, from HEK-293T cells (human)
Assay: SEC; each protein alone on Superdex 200 in PBS; molecular weights from the filtration patterns

stoichiometry N: 2
Substance: human IgG1 Fc, from HEK-293T cells (domain or fragment)
